Test results: the supplement of paper PMC10724198
± gives the standard deviation of the averaged measurements.

Test system: Saccharomyces cerevisiae
Assay: protein stability index of tFT-peptide fusion (C-terminal peptide) (PSI (0-1 scale)); higher = more stable (slower turnover)
Conditions: temperature: 30 C
Description: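 MPS profiling in S. cerevisiae of the yeast C-terminome library: the last 12 aa of each annotated ORF are fused to the C-terminus of a sfGFP-mCherry timer, after a GGGS linker. Cells are FACS-sorted into 8 mCherry/sfGFP bins and deep-sequenced. PSI runs from 0 (unstable) to 1 (stable); wild type and das1Δ backgrounds, two technical replicates each.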

[1] = genetic background: das1 deletion

Sequence | protein stability index [1] | protein stability index (genetic background: wild type)
LHENQLLKWLSK [RRN5 C-terminal 12 aa] | 0.72567 ± 0.00036 | 0.7 ± 0.008
LIDSYCLGGESR [YPL034W C-terminal 12 aa] | 0.688 ± 0.018 | 0.697 ± 0.039
LIEKNFLSSHAG [YJR071W C-terminal 12 aa] | 0.7159 ± 0.0042 | 0.708 ± 0.022
LIFQRKYTAKEF [DTR1 C-terminal 12 aa] | 0.6863 ± 0.004 | 0.678 ± 0.035
LIHNFNSRYCHE [LEE1 C-terminal 12 aa] | 0.725 ± 0.0078 | 0.691 ± 0.0088
LINGTRIMNSIS [VPS33 C-terminal 12 aa] | 0.684 ± 0.01 | 0.532 ± 0.0095
LISFGMGNTQVI [CLN2 C-terminal 12 aa] | 0.699 ± 0.031 | 0.6846 ± 0.004
LITSHCCYWNKR [YBL039C-A C-terminal 12 aa] | 0.6928 ± 0.0067 | 0.52 ± 0.033
LKKIATKFWGKH [TRK2 C-terminal 12 aa] | 0.697 ± 0.016 | 0.714 ± 0.066
LKNYLEAQIAKK [YPR097W C-terminal 12 aa] | 0.692 ± 0.03 | 0.721 ± 0.016
LKPWEGRIYLVK [MAL12 C-terminal 12 aa] | 0.6483 ± 0.0018 | 0.697 ± 0.022
LKQKALVAAKQS [YJR015W C-terminal 12 aa] | 0.679 ± 0.024 | 0.319 ± 0.03
LKSIYTSERITI [RAD61 C-terminal 12 aa] | 0.707 ± 0.04 | 0.667 ± 0.025
LKTPQEYESKAK [BOL1 C-terminal 12 aa] | 0.702 ± 0.02 | 0.753 ± 0.069
LLAKQLLLLLLR [YER079C-A C-terminal 12 aa] | 0.33 ± 0.018 | 0.342 ± 0.0063
LLEDEDRTYNYT [KCH1 C-terminal 12 aa] | 0.6892 ± 0.0059 | 0.718 ± 0.069
LLHYQSWHFSIY [YJL007C C-terminal 12 aa] | 0.707 ± 0.035 | 0.407 ± 0.026
LLLAGRKLSLDK [ARK1 C-terminal 12 aa] | 0.694 ± 0.016 | 0.715 ± 0.023
LLLQFPPYLPHD [LAG2 C-terminal 12 aa] | 0.75 ± 0.019 | 0.7442 ± 0.0048
LLPLIYLINKSL [YMR013C-A C-terminal 12 aa] | 0.622 ± 0.014 | 0.199 ± 0.022
LLRKHVFPSVPK [VFA1 C-terminal 12 aa] | 0.732 ± 0.026 | 0.738 ± 0.031

Sequence | protein stability index [1] | protein stability index (genetic background: wild type)
LLSAILDPSKSK [MED11 C-terminal 12 aa] | 0.709 ± 0.021 | 0.699 ± 0.046
LLSLPSSTLTKS [YIL068W-A C-terminal 12 aa] | 0.703 ± 0.025 | 0.702 ± 0.0086
LLTYFRKHVKDT [SCC2 C-terminal 12 aa] | 0.714 ± 0.043 | 0.572 ± 0.054
LLYPVKSESSTV [PDR16 C-terminal 12 aa] | 0.68 ± 0.013 | 0.676 ± 0.01
LMILGNFMPILN [ERT1 C-terminal 12 aa] | 0.6909 ± 0.0037 | 0.5655 ± 0.0049
LPFQKLKHLIKK [MRX11 C-terminal 12 aa] | 0.707 ± 0.031 | 0.706 ± 0.046
LPLYYVYQCDMI [YDR094W C-terminal 12 aa] | 0.6642 ± 0.0046 | 0.643 ± 0.052
LPVSDSRCYYIL [YML031C-A C-terminal 12 aa] | 0.6921 ± 0.0021 | 0.343 ± 0.013
LPYRMLIRMYPV [YEL014C C-terminal 12 aa] | 0.5232 ± 0.0025 | 0.5345 ± 0.0047
LQTMSFLMNHLI [YJL032W C-terminal 12 aa] | 0.6597 ± 0.0011 | 0.23 ± 0.042
LRLKGNAKAPGA [CLC1 C-terminal 12 aa] | 0.70418 ± 0.00015 | 0.729 ± 0.012
LRTTSSMEKKLN [ALG3 C-terminal 12 aa] | 0.7064 ± 0.00072 | 0.205 ± 0.0049
LSADGIYTAVPN [PAU17 C-terminal 12 aa] | 0.695 ± 0.018 | 0.702 ± 0.011
LSAETGIRGEGE [YIL100W C-terminal 12 aa] | 0.6849 ± 0.0034 | 0.71 ± 0.029
LSKDGIYTAVPN [PAU23 C-terminal 12 aa] | 0.6917 ± 0.0018 | 0.702 ± 0.0078
LSKKDYSIDSIE [TPO3 C-terminal 12 aa] | 0.726 ± 0.011 | 0.6981 ± 0.0023
LSKMYIGWLPFW [MEC1 C-terminal 12 aa] | 0.7227 ± 0.0057 | 0.6826 ± 0.002
LSLTLVSIIKTA [COG2 C-terminal 12 aa] | 0.618 ± 0.025 | 0.193 ± 0.0064
LSNQNSPLFLYH [YHR175W-A C-terminal 12 aa] | 0.7053 ± 0.0058 | 0.705 ± 0.015
LSPSYSCRYHGR [YPL152W-A C-terminal 12 aa] | 0.7126 ± 0.0044 | 0.6832 ± 0.004
